Laboratory results from patent US9133440B2, “Generation of new pancreatic beta cells” (priority 2012, dated 2015).
Each block holds one molecule with its values, some of them ahead of it.

Columns and labels:
[1] = system: new small islets developing from non-endocrine tissue; conditions: cited from earlier work; for levels of new islet markers NGN3, NKX6.1, SOX9, and INS: five days after treatment; for increase in the volume of new small islets developing from non-endocrine tissue: in vivo
Reg Receptor [2] = target: T1, Reg Receptor (Homo sapiens, UniProt O43909); experiment: Direct binding of Perle peptides to purified Reg Receptor coated on 96 well plate (strep-HRP, absorbance at 405 nm); design: FLAG; made in house; host or cells: 293T cells (transient transfection, harvested after 72 hours); conditions: FIG. 9; for strength of binding to the Reg Receptor relative to the other peptides tested: comparison among 7-, 8-, 9-amino acid Perle peptides, HIP and scrambled control; for direct binding to the Reg Receptor: purified Reg Receptor coated on plate, peptides bound 1 hour at room temperature, absorbance at 405 nm
T1 sequence (O43909 1-919): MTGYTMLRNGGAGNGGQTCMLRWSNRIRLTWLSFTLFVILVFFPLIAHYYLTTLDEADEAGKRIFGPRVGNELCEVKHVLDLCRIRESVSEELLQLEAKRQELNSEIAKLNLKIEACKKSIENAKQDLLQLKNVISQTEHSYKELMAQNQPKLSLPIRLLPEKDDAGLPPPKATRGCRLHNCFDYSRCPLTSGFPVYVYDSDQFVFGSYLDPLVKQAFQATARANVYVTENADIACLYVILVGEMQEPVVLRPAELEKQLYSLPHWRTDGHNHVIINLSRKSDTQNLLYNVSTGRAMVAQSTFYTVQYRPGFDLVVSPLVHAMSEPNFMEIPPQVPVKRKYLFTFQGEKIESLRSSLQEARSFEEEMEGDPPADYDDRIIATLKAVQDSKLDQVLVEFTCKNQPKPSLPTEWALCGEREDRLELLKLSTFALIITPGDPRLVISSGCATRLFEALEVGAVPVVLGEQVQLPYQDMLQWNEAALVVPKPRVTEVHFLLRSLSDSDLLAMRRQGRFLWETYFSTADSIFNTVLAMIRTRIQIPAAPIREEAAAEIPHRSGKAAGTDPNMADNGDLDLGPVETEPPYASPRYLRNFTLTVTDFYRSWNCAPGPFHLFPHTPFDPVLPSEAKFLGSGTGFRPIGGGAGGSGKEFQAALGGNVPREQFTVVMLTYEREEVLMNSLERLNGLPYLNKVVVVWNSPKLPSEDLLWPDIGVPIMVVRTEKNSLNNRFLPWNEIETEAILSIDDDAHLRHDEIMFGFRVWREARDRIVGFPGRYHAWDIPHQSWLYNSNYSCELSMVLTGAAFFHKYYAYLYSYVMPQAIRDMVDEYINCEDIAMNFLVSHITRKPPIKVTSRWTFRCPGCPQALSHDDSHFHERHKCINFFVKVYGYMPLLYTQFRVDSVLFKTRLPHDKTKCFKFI
Method: Cells were collected after 72 hours. The Reg Receptor was tagged with FLAG epitope and FLAG resin was utilized to purify out the Reg Receptor. […] The Reg Receptor was purified by Anti-Flag M2 affinity gel. Target protein was confirmed by 4-12% SDS-PAGE and Western-blot. […] FIGS. 7b and 7c are the Western blot results showing that the purified protein is the Reg Receptor using the antibody to the Reg Receptor (CD104). The Reg Receptor is shown In FIG. 7 to be highly purified.
Plates were coated overnight coated plate and washed three times with 0.5×TBST and blocked with 3% BSA and rotated at room temperature for 1 hour. After blocking, plates were washed three times with 0.5×TBST. Peptides were then diluted with TBST buffer and added into wells in duplicate then left to bind at room temperature for 1 hour. After washing three times, 100 ng/ml strep-HRP was added into plate at 100 ul/well, and rotated at room temperature for one hour. ABST reagents were warmed to room temperature, mixed immediately before using. Then 100 ul was added to each well and read after 25 minutes reaction and absorbance was evaluated at 405 nm by a Spectramax M5 plate reader. The purified Reg Receptor was coated on plates. Then plates were blocked with BSA solution. Subsequently, the Perle peptides were added into the wells, and HRP-straptavidin and its substrates were added into the wells to reveal the interaction between Receptor and the Perle peptide.

[3] = cited from earlier work
[4] = target: 20 amino acid Reg Receptor sequence (SEQ ID NO:9) (amino acids 117-136) (Homo sapiens, UniProt O43909); experiment: Enzyme ImmunoAssay titers of polyclonal antibodies raised to the 20-amino acid Reg Receptor sequence; type: binding; conditions: reference range of FIG. 13; bleed after day 0 and day 21 boosts
Method: FIGS. 11-13 were from studies undertaken to develop stimulatory antibodies to the Reg Receptor to accelerate the progression of beta cell formation by stimulating potential binding sites on the Reg Receptor. For the production of […] antibodies, many sequences were evaluated within the N-terminal portion of Reg receptor (amino acids 1-332) (SEQ ID NO:13), which is the amino acid region believed to be the binding domain for the Reg peptides within the Reg receptor that is not contained in the other members of the of Exostoses family, and thus is hypothesized to be the Reg binding domain.
Data sets were taken from the bleed after the day 0 and day 21 boosts. The animals were injected with a peptide of SEQ ID NO: 9 and were conjugated to keyhole limpet hemocyanin (KLH). […] At a dilution of 1:750,000, the absorbance fell within a range of 0.45 to 0.9. […]
Previous studies have identified that Reg proteins and peptides act through a 919-amino acid cell-surface protein. […] For the production of stimulatory antibodies, sequences were evaluated within the N-terminal portion of the putative Reg Receptor (amino acids 1-332) (SEQ ID NO:13), which is the amino acid region of Reg Receptor that is not contained in the other members of the of Exostoses family, and thus is hypothesized to be the Reg binding domain.

Reg Receptor [5] = target: T1, Reg Receptor; experiment: Western blot analysis of Reg Receptor translocation from cytoplasmic membrane to nucleus in human extra-islet ductal cells; type: cell-based; conditions: Perle peptide 167 nM once a day for four days, cytosolic and nuclear fractions, shorter and longer exposure times
Method: Western blot analysis identified the presence of the Reg receptor on the cytoplasmic membrane and the movement of the Reg Receptor from the cytoplasmic membrane through the cytoplasm to the nucleus in the presence of the Perle peptides. Cytoplasmic extracts were obtained in 10 mM HEPES (pH 8.0), 1 mM EDTA, 1.5 mM MgCl2, 10 mM KCl, 0.5 mM DTT, 200 mM sucrose and 0.5% Nonidet P-40. Nuclear extracts were obtained in 20 mM HEPES (pH 7.9), 0.75 mM MgCl2, 210 mM NaCl, 50 mM KCl, 1 mM EDTA, 10% glycerol, and 0.5 mM DTT. Both extraction buffers contained 0.5 mM PMSF, 1 μg/ml leupeptin, 1 μg/ml aprotinin, 2.5 mM Na4P2O7, 1 mM β-glycerophosphate, and 1 mM Na3VO4. […] Secondary signals were developed with chemiluminescence substrate and analyzed by autoradiography. […]
Human extra-islet ductal cells were seeded in T75 flasks in Dulbecco's Modified Eagle media containing 10% fetal bovine serum. […] In these cell extracts the total protein levels were determined, and 50 micrograms of total protein were used to perform the western blot analysis. […]
Analyses were performed from cytoplasmic extracts were obtained in 10 mM HEPES (pH 8.0), 1 mM EDTA, 1.5 mM MgCl2, 10 mM KCl, 0.5 mM DTT, 200 mM sucrose and 0.5% Nonidet P-40. […] Secondary signals were developed with chemiluminescence substrate and analyzed by autoradiography. […]

[6] = system: STZ-rendered diabetic mice; conditions: cited from earlier work
[7] = system: human pancreatic ductal tissue devoid of islets; conditions: cited from earlier work

direct binding to the Reg Receptor (Reg Receptor [2]): no direct binding
Molecule: HIP: 14-amino Reg 3a peptide sequence (Human Proislet Peptide), prior art (IGLHDPTQGTEPNG; listed as Homo sapiens) [reference compound]
levels of new islet markers NGN3, NKX6.1, SOX9, and INS [1]: increased levels | increase in the volume of new small islets developing from non-endocrine tissue [1]: 2 fold | strength of binding to the Reg Receptor relative to the other peptides tested (Reg Receptor [2]): same level of binding as the scrambled peptide

translocation of the Reg Receptor from the cytoplasm to the nucleus (Reg Receptor [5]; listed as 8-amino acid Perle peptide): greatest ability | translocation of the Reg Receptor from the cytoplasm to the nucleus (Reg Receptor [5]; listed as 8-amino-acid Perle Peptide): greatest impact | strength of binding to the Reg Receptor relative to the other peptides tested (Reg Receptor [2]): greatest binding | strength of binding to the Reg Receptor relative to the other peptides tested (Reg Receptor [2]; listed as 8-amino acid peptide): strongest in binding | direct binding to the Reg Receptor (Reg Receptor [2]): bind directly
Molecule: VWIGLHDP (listed as Homo sapiens) [SEQ. ID NO. 4, 8-amino acid Perle peptide within human Reg1a, Reg1b and Reg3a]

direct binding to the Reg Receptor (Reg Receptor [2]): demonstrated binding | direct binding to the Reg Receptor (Reg Receptor [2]; listed as 7-amino acid Perle peptide): bind directly
Molecule: WIGLHDP (listed as Homo sapiens) [SEQ. ID NO. 7, 7-amino acid Perle peptide within human Reg1a, Reg1b, Reg3a and Reg4]

Continued, molecule first:

Molecule: INGAP: 15-amino acid peptide within the hamster Reg3gamma peptide sequence, prior art (IGLHDPSHGTLPNGS; listed as Mesocricetus auratus)
levels of new islet markers NGN3, NKX6.1, SOX9, and INS [1]: increased levels | increase in the volume of new small islets developing from non-endocrine tissue [1]: 2 fold | rise in stimulated C-peptide ([3]; human type 1 patients, by day 56, p<0.001): 27% | increase in stimulated C-peptide ([3]; type 1 patients, p=0.0057): 27%

Molecule: NVWIGLHDP (listed as Homo sapiens) [SEQ. ID NO. 1, 9-amino acid Perle peptide within human Reg1a and Reg1b]
direct binding to the Reg Receptor (Reg Receptor [2]): demonstrated binding | direct binding to the Reg Receptor (Reg Receptor [2]; listed as 9-amino acid Perle peptide): bind directly

Molecule: SEQ ID NO: 9: 20-amino acid binding site within the human Reg receptor (amino acids 117-136), used as immunogen (CKKSIENAKQDLLQLKNVIS; listed as Homo sapiens)
response to the antigen according to the polyclonal titer reference range [4]: high response

B1: Reg3a protein: human Reg3a gene protein given to ductal tissue and STZ diabetic mice in the inventor's earlier study (protein, listed as Homo sapiens)
chain: MLPPMALPSVSWMLLSCLMLLSQVQGEEPQRELPSARIRCPKGSKAYGSHCYALFLSPKSWTDADLACQKRPSGNLVSVLSGAEGSFVSSLVKSIGNSYSYVWIGLHDPTQGTEPNGEGWEWSSSDVMNYFAWERNPSTISSPGHCASLSRSTAFLRWKDYNCNVRLPYVCKFTD
rise in total beta cells staining insulin ([6]; STZ-rendered diabetic mice): 3 fold | fasting glucose ([6]; overnight fast, morning of day 39 of treatment, P=0.020 vs placebo): 111.00 ± 11.4 mg/dL | insulin concentrations [7]: significant increase
